US20100260765A1 (AstraZeneca / MedImmune, published 2010)

What was measured:
[1] = molecular target: T1, human KDR (VEGFR2) on cells (human, UniProt P35968 20-1356); test: cell-based or functional assay
[2] = molecular target: T1, human KDR (VEGFR2) on cells; test: cell-based or functional assay; remark: listed apart in the source
b-KDRIg4-7-myc-his = molecular target: T2, b-KDRIg4-7-myc-his (UniProt P35968 328-764, prefix 'b-' not explained; captured on neutravidin-coated plates (presumably biotinylated, site not stated)); test: ELISA, b-KDRIg4-7-myc-his 1 ug/mL on neutravidin, hybridoma supernatant 1:5
T2 construct: domain: Ig4-7; The text calls it 'a KDR antibody containing the Ig4-7 domain'; it is read as the KDR fragment; Purified on a nickel column; also called Ig4-7 domain of KDR; soluble KDR Ig4-7; not shown: myc-his tag of the pSecTag vector
Method: To screen by binding to the Ig4-7 domain of KDR, plates were first coated with neutravadin (Pierce) at 4 μg/mL and incubated overnight at 4° C. The plates were then blocked and subsequently incubated with b-KDRIg4-7-myc-his at 1 μg/mL for one hour at room temperature. Candidate hybridoma supernatants (at 1:5 dilution) were transferred to the plates and incubated for one hour at room temperature. The plates were then washed and incubated with goat anti-human IgG Fc POD (at 1:4000 dilution) for one hour at room temperature.

[3] = molecular target: T1, human KDR (VEGFR2) on cells; test: FACS on HUVEC, hybridoma supernatant 1:50
Method: HUVECs were seeded at 15,000 cells/well and incubated with 100 μL of sample supernatant (at 1:50 dilution) for one hour at 4° C. The positive control was goat anti-KDR antibody (R&D Systems, Inc.), and negative controls included irrelevant hybridoma supernatants at the same dilution. The cells were then washed and incubated with Cy5-conjugated goat anti-human antibody at 5 μg/mL and 7-Amino-Actinomycin D (7AAD) at 5 μg/mL for 15 minutes at 4° C. Bound KDR was detected using FACS analysis.

[4] = molecular target: T3, soluble KDR (VEGF Receptor 2 D1-7, Cat. #676490, Calbiochem) (human, UniProt P35968 20-764); test: ELISA, plate-coated soluble KDR 250 ng/mL, hybridoma supernatant 1:5
T3 construct: extracellular domain; Bought reagent; also called soluble human KDR; immobilized soluble KDR
Method: To screen by binding to immobilized soluble KDR, plates were coated with KDR (Calbiochem) at 250 ng/mL overnight at 4° C. After blocking and washing the coated plates, the candidate hybridoma supernatants (at 1:5 dilution) were transferred to the plates and incubated for one hour at room temperature. The plates were then washed and incubated with secondary antibody (at 1:4000 dilution) for one hour at room temperature.

[5] = molecular target: T4, mouse KDR (Flk-1)/Fc (Cat. #443-KD/CF, R&D Systems) (mouse, UniProt P35918 20-762); test: ELISA, plate-coated Flk-1/Fc 500 ng/mL, hybridoma supernatant 1:5
T4 construct: Bought reagent; also called mouse VEGFR2; KDR mouse ortholog; Fc part of the bought chimera not given
Method: The cross-reactivity of antibodies in the hybridoma supernatant was tested against KDR mouse ortholog (mouse VEGFR2, or Flk-1) and human VEGFR1 (Flt-1). Cross-reactivity was measured using an ELISA based assay.
After washing and blocking the plates, the antibody-containing supernatants were added (at 1:5 dilution) into the coated wells and incubated for one hour at room temperature. The plates were then incubated with mouse anti-human IgG 2, 3 and 4 and subsequently with goat anti-mouse IgG Fc POD, to detect and measure bound antibodies.

[6] = molecular target: T1, human KDR (VEGFR2) on cells; test: cell-based or functional assay; remark: listed apart in the source

T3 sequence (P35968 20-764): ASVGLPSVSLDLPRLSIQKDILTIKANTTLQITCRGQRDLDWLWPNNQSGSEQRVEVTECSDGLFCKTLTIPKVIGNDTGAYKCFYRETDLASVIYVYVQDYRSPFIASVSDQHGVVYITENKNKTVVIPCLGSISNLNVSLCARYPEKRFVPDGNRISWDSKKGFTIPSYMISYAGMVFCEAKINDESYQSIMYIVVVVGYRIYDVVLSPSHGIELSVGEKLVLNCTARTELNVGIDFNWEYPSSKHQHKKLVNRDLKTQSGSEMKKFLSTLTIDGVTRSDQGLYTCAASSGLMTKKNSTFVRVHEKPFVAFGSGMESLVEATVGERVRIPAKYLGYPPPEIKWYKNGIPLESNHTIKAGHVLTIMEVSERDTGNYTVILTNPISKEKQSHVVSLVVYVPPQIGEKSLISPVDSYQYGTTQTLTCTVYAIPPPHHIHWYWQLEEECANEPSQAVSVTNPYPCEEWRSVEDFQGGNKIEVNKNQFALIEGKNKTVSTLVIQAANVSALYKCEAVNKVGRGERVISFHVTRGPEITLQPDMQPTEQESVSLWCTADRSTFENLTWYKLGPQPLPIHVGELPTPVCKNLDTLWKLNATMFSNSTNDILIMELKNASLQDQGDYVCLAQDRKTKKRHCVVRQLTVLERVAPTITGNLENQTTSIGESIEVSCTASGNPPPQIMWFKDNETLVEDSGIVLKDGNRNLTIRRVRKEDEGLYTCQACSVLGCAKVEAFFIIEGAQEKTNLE
T2 sequence (P35968 328-764): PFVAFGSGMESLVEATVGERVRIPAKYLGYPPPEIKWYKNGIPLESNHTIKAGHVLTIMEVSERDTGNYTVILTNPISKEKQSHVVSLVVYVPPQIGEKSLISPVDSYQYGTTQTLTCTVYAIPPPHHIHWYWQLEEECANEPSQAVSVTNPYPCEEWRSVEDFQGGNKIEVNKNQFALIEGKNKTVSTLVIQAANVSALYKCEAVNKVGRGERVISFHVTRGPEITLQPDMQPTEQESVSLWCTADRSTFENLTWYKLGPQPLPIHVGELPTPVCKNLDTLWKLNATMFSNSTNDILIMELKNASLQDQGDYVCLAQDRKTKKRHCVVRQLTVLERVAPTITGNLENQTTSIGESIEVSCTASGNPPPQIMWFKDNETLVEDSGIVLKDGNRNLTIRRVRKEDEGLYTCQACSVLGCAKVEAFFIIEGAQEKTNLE
T4 sequence (P35918 20-762): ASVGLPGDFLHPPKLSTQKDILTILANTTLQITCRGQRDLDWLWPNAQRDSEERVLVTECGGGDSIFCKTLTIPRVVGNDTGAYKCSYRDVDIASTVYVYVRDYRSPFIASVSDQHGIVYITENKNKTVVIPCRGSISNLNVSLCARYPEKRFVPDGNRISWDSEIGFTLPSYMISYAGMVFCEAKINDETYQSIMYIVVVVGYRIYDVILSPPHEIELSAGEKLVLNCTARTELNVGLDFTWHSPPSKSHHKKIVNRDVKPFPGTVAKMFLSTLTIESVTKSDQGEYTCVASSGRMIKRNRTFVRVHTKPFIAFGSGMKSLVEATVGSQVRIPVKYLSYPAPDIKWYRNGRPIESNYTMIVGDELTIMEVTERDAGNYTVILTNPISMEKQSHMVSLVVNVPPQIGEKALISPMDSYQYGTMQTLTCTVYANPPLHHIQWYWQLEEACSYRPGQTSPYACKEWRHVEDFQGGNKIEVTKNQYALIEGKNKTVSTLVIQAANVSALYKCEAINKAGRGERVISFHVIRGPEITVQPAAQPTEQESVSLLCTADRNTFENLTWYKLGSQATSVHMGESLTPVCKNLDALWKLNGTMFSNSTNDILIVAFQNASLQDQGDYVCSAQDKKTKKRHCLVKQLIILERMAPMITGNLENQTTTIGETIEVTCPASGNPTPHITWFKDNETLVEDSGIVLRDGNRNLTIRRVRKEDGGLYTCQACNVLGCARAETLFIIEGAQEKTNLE
T1 sequence (P35968 20-1356): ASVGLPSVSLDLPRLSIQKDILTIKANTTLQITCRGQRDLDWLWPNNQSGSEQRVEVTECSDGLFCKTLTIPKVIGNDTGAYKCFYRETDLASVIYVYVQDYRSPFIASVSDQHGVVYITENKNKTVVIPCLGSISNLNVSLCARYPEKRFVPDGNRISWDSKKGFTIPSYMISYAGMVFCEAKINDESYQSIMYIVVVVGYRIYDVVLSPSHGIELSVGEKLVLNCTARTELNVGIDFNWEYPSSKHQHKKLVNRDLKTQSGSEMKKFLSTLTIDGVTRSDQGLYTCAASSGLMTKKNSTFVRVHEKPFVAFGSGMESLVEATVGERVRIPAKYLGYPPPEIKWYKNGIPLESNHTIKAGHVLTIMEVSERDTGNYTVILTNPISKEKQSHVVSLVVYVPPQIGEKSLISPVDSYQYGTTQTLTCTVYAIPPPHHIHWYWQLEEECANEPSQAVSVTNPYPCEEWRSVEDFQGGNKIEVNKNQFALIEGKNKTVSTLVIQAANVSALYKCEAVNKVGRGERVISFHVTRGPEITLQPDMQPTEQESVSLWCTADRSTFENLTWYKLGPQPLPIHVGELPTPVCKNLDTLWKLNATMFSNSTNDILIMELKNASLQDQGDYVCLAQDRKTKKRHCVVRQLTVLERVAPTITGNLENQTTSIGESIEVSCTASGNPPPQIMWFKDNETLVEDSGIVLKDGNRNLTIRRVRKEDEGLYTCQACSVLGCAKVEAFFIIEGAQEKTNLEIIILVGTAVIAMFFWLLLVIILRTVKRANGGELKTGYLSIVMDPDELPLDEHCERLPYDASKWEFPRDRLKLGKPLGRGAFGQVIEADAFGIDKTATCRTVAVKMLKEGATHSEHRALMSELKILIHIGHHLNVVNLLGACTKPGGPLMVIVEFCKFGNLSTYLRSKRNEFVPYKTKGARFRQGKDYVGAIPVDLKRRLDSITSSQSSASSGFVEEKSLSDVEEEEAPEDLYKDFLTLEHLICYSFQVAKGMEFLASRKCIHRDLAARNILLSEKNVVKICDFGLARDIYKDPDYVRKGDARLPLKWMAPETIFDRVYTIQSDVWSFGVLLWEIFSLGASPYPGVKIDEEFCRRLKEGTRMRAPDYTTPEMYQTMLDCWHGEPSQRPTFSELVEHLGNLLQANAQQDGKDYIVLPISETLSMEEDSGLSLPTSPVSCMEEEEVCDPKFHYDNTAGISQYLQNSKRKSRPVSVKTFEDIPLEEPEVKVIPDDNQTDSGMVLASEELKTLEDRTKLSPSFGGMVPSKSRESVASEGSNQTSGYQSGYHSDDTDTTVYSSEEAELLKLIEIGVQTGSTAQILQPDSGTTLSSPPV

Binder	% Inhibition of VEGF165-mediated pTyr Activity, Average [1] [%]	% Inhibition of VEGF165-mediated pTyr Activity, n = 1 [1] [%]	% Inhibition of VEGF165-mediated pTyr Activity, n = 2 [1] [%]	% Inhibition of VEGF165-mediated pTyr Activity, n = 3 [1] [%]	HUVEC survival (n = 1) 1:10 dilution of supernatant (RLU) [2] [RLU]	HUVEC survival (n = 2) 1:20 dilution of supernatant (RLU) [2] [RLU]	b-KDRIg4-7 OD(450 nm) (b-KDRIg4-7-myc-his) [OD450]	FACS Geometric Mean [3]	KDR OD(450 nm) [4] [OD450]	OD (450 nm) [5] [OD450]	% Inhibition of VEGF-E-mediated pTyr Activity [6] [%]
anti-KDR monoclonal antibody 33C3 (antibody, V domains shown, Fully human mAb from XenoMouse (IgG2 or IgG4 strain); hybridoma supernatant) VH: QVQLVESGGGLVKPGESLRLSCAASGFTFSDYYMSWIRQAPGKGLEWVSYISHGGSTIYYADSVKGRFTISRDNAKNSLYLQMNSLRVEDTAVYFCARDDFWSGYYFNWFDPWGQGALVTVSS VL: DIQMTQYPLSLSASVGDRVTITCRASQSISSFLNWYHQKPGKAPKLLIYGTSSLQSGVPSRFSGSGSGTDFTLTISSLQPEDFATYYCQQTYSIPLTFGGGTNVEIK	71	87	75	50	6540	4710	3.66	20	1.15	0.076	66
anti-KDR monoclonal antibody 30H10 (antibody, V domains shown, Fully human mAb from XenoMouse (IgG2 or IgG4 strain); hybridoma supernatant) VH: EVQLLESGGGLVQPGGSLRLSCAASGFTFSNYAMSWVRQAPGKGLEWVSAISGSGGITYYADSVKGRFTISRDNSKNTLFLQMNSLRAEDTAVYYCAKASGDNWGQGTLVSVSS VL: not shown	76	92	77	59	39500	21100	0.047	31	0.943	–	20
anti-KDR monoclonal antibody 27A3 (antibody, V domains shown, Fully human mAb from XenoMouse (IgG2 or IgG4 strain); hybridoma supernatant) VH: QLQLQESGPGLVKPSETLSLTCTVSGGSISSRSDYWGWIRQPPGKGLEWIGTIYYSGDTYYNPSLKSRVTISVDTSKNQFSLKLSSVTAADTAVYYCARQQLVLYYFDYWGQGTLVTVSS VL: EIVLTQSPGTLSLSPGERATLSCRASQSVSSSYLAWYQQKPGQAPRLLIYATSNRATGIPDRFSGSGSGTDFTLTISRLEPEDFAVYYCQQHGSSPPLTFGGGTKVEIK	62	60	68	59	17300	4560	1.82	25	3.75	–	60
anti-KDR monoclonal antibody 33E1 (antibody, V domains shown, Fully human mAb from XenoMouse (IgG2 or IgG4 strain); hybridoma supernatant) VH: QVQLQESGPGLVKPSQTLSLTCTVSGGSISSGDHYWSWIRQHPGKGLEWIGHIYYSGSTDYNPSLKSRVTISVDTSKNHFSLKLNSVTAADTAVYYCARTNSSSWSDWYFDLWGRGTLVTVSS VL: DIVMTQSPDSLAVSLGERATINCKSSQSILYSSNNKNYLAWYQRKPGQPPILLIHWASTRESGVPDRFSGSGSRTDFTLTISSLQAEDVAVYYCQQYFITPWTFGQGTKVEIK	73	88	78	52	25700	2310	0.62	14	4.55	0.097	46
anti-KDR monoclonal antibody 21H6 (antibody, V domains shown, Fully human mAb from XenoMouse; hybridoma supernatant) VH: QVQLVESGGGLVKPGGSLRLSCAASGFTFSDYYMSWIRQAPGKGLEWVSYISNSGITIYYADSVKGRFTISRDNAKNSLYLQMNSLRAGDTAVYYCAREEWYSSRWYRNFDYWGQGTLVTVSS VL: DIQMTQFSSSLSASVGDRVTITCRASQSISRYLNWYQQKPGKAPKLLIYAASSLQSGVPSRFNGSGSGTDFTLTISSLQPEDFATYYCQQSYSAPLTFGGGTKVEIK	72	85	65	68	10200	247	0.935	18	0.62	–	70
anti-KDR monoclonal antibody 21A1 (antibody, V domains shown, Fully human mAb from XenoMouse (IgG2 or IgG4 strain); hybridoma supernatant) VH: QVQLVESGGGLVKPGGSLRLSCAASGFTFSDYYMSWIRQAPGKGLEWVSYISNSGITIYYADSVKGRFTISRDNAKNSLYLQMNSLRAGDTAVYYCAREEWYSSRWYRNFDYWGQGTLVTVSS VL: DIQMTQFSSSLSASVGDRVTITCRASQSISRYLNWYQQKPGKAPKLLIYAASSLQSGVPSRFNGSGSGTDFTLTISSLQPEDFATYYCQQSYSAPLTFGGGTKVEIK	72	71	77	68	8870	2670	1.27	14	0.967	–	67
anti-KDR monoclonal antibody 24B3 (antibody, V domains shown, Fully human mAb from XenoMouse (IgG2 or IgG4 strain); hybridoma supernatant) VH: EVQLVESGGGLVKPGGSLRLSCAASGFTFSTYSMNWVRQAPGKGLEWVSFISGRSSYIYYADSVKGRFTISRDNAKNSLYLQMNSLRAEDTAVYYCSKDDWFEELWGQGTLVTVSS VL: DIQMTQSPSSLSASVGDRVTITCRASQGIRSDLGWYQQKPGKAPKRLIYATSSLQSGVPSRFSGSGSGTEFTLTISSLQPEDFATYYCLQHNRYPWTFGQGTKVEIK	51	69	51	33	14100	2460	0.065	26	6	0.094	40
anti-KDR monoclonal antibody 32G7 (antibody, V domains shown, Fully human mAb from XenoMouse (IgG2 or IgG4 strain); hybridoma supernatant) VH: EVQLVESGGGLVKPGGSLRLSCAASGFTISSYSMNWVRQAPGKGLEWVSFISSRSNYIYYADSVKGRFTISRDNAKNSLYLQMNSLRAEDTAVYYCSKDDWFEELWGQGTLVTVSS VL: DIQMTQSPSSLSASVGDRVTITCRASQDIRNDLGWYQQKPGKAPKRLIYAASSLQSGVPSRFSGSGSGTEFTLTISSLQPEDFATYYCLQHNSFPWTFGQGTKVEIK	44	73	47	11	24900	11900	0.068	28	1.07	0.092	57
anti-KDR monoclonal antibody 33B1 (antibody, V domains shown, Fully human mAb from XenoMouse (IgG2 or IgG4 strain); hybridoma supernatant) VH: EVQLVESGGGLVKPGGSLRLSCAASGFTFSSYTMNWVRQAPGKGLEWVSFIDSRSSYIYYADSVKGRFTISRDNAKNSLYLQMNSLRAEDTAVYYCSKDDWFEELWGQGTLVTVSS VL: DIQMTQSPSSLSASVGDRVTITCRASQGIRNDLGWYQQKPGKAPKRLIYATSSLQSGVPSRFSGSGSGTEFTLTISSLQPEDFATYYCLHHNSFPWTFGQGTKVEIK	54	76	56	31	19400	12500	0.058	25	1.11	0.108	54
